In IntAct's records for PubMed 18441008:

B1: Peroxisome proliferator-activated receptor gamma coactivator 1-alpha (Homo sapiens), Q9UBK2 (parent)
chain: MAWDMCNQDSESVWSDIECAALVGEDQPLCPDLPELDLSELDVNDLDTDSFLGGLKWCSDQSEIISNQYNNEPSNIFEKIDEENEANLLAVLTETLDSLPVDEDGLPSFDALTDGDVTTDNEASPSSMPDGTPPPQEAEEPSLLKKLLLAPANTQLSYNECSGLSTQNHANHNHRIRTNPAIVKTENSWSNKAKSICQQQKPQRRPCSELLKYLTTNDDPPHTKPTENRNSSRDKCTSKKKSHTQSQSQHLQAKPTTLSLPLTPESPNDPKGSPFENKTIERTLSVELSGTAGLTPPTTPPHKANQDNPFRASPKLKSSCKTVVPPPSKKPRYSESSGTQGNNSTKKGPEQSELYAQLSKSSVLTGGHEERKTKRPSLRLFGDHDYCQSINSKTEILINISQELQDSRQLENKDVSSDWQGQICSSTDSDQCYLRETLEASKQVSPCSTRKQLQDQEIRAELNKHFGHPSQAVFDDEADKTGELRDSDFSNEQFSKLPMFINSGLAMDGLFDDSEDESDKLSYPWDGTQSYSLFNVSPSCSSFNSPCRDSVSPPKSLFSQRPQRMRSRSRSFSRHRSCSRSPYSRSRSRSPGSRSSSRSCYYYESSHYRHRTHRNSPLYVRSRSRSPYSRRPRYDSYEEYQHERLKREEYRREYEKRESERAKQRERQRQKAIEERRVIYVGKIRPDTTRTELRDRFEVFGEIEECTVNLRDDGDSYGFITYRYTCDAFAALENGYTLRRSNETDFELYFCGRKQFFKSNYADLDSNSDDFDPASTKSKYDSLDFDSLLKEAQRSLRR
partner: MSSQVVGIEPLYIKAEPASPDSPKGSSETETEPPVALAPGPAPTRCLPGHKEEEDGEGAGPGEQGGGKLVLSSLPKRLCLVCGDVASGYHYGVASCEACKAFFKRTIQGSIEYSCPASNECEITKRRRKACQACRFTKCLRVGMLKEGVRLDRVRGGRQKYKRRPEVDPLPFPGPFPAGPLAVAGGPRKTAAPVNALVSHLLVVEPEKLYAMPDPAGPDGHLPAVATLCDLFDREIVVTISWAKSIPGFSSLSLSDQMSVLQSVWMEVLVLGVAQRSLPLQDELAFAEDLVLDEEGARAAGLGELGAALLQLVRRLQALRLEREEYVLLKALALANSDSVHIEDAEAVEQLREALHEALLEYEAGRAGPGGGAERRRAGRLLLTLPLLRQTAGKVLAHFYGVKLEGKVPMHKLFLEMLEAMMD

Variants of: B1
Settings: with err1_human ESRRA

effect of a mutation on the interaction	Variant
decreasing interaction strength	L210A
decreasing interaction strength	L144A

Variants of: B1
Settings: with err1_human ESRRA
Remark: another data set of the same source

effect of a mutation on the interaction	Variant
disrupting interaction strength	L210A
disrupting interaction strength	C207E
disrupting interaction strength	C207S
disrupting interaction strength	Y213A
decreasing interaction strength	L211A

Variants of: B1
Settings: with err1_human ESRRA
Remark: another data set of the same source

effect of a mutation on the interaction	Variant
with no effect	P202A;Q203A
disrupting interaction strength	R204A;R205A

Variants of: B1
Settings: with err1_human ESRRA
Remark: another data set of the same source

effect of a mutation on the interaction	Variant
decreasing interaction strength	K212R

Variants of: B1
Settings: with err1_human ESRRA
Remark: another data set of the same source

effect of a mutation on the interaction	Variant
disrupting interaction strength	L144A
